Measured values reported in US20040053357A1 (ICAGEN, published 2004).

Target: T1, Kv2.2 (UniProt Q92953 1-911, limits assumed)
T1 sequence (looked up): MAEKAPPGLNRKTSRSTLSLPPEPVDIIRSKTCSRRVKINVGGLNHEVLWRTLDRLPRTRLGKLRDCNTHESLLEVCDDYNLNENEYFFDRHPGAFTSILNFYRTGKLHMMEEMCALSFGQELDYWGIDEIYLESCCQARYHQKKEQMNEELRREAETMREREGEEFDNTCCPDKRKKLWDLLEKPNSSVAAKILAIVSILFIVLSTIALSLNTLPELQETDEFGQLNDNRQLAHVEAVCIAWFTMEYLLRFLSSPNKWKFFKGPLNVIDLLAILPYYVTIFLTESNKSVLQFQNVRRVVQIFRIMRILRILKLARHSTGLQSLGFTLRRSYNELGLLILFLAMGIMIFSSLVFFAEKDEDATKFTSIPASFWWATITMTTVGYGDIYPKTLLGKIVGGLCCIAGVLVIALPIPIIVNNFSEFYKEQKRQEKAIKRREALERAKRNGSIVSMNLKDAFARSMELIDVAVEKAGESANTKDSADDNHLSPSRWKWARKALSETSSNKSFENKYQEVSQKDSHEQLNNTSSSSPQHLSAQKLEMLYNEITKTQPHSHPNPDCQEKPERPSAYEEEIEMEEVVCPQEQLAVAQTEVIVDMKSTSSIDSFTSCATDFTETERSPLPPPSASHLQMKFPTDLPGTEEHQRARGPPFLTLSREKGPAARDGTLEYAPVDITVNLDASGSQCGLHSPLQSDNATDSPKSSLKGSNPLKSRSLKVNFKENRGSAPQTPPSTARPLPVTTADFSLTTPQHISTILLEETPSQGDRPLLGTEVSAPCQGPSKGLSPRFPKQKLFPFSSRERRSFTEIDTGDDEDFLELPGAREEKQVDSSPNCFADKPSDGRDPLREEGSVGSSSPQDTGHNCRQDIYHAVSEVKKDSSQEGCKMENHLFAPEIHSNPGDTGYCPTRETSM
Test: cell-based or functional assay

rate of activation at 0 mV: ~2 fold
B1: human Kv10.1 (other)
chain: MLKQSERRRSWSYRPWNTTENEGSQHRRSICSLGARSGSQASIHGWTEGNYNYYIEEDEDGEEEDQWKDDLAEEDQQAGEVTTAKPEGPSDPPALLSTLNVNVGGHSYQLDYCELAGFPKTRLGRLATSTSRSRQLSLCDDYEEQTDEYFFDRDPAVFQLVYNFYLSGVLLVLDGLCPRRFLEELGYWGVRLKYTPRCCRICFEERRDELSERLKIQHELRAQAQVEEAEELFRDMRFYGPQRRRLWNLMEKPFSSVAAKAIGVASSTFVLVSVVALALNTVEEMQQHSGQGEGGPDLRPILEHVEMLCMGFFTLEYLLRLASTPDLRRFARSALNLVDLVAILPLYLQLLLECFTGEGHQRGQTVGSVGKVGQVLRVMRLMRIFRILKLARHSTGLRAFGFTLRQCYQQVGCLLLFIAMGIFTFSAAVYSVEHDVPSTNFTTIPHSWWWAAVSISTVGYGDMYPETHLGRFFAFLCIAFGIILNGMPISILYNKFSDYYSKLKAYEYTTIRRERGEVNFMQRARKKIAECLLGSNPQLTPRQEN
